The DeepSol protein solubility set

test: soluble on expression in E. coli; label from the status in PepcDB or PDB records

Soluble on expression in E. coli, not soluble:
MGSDKIHHHHHHMKLVFRWYGEKHDTVTLEQIRQIPGVEGVVGALFDIPVGEVWPFEEIMKLKETVEKAGLKLEVIESVNVHEDIKLGLPTRDRYIENYKKTIRNLAKAGVKVVCYNFMPVFDWMRTDLHKKLPDGSETMEYDHRLIEGVTPDELIKRVKEGSQGFVLPGWEWDRLEKLRETFELYKNVDEEKLFENLVYFLERVIPVCEECDVKLAIHPDDPPWSIFGLPRIITNKENIERMLKAVDSPYNGITFCMGSLGANPENNIPEMIRYFGKMGRIHFAHVRNLKFTGEKSFYETAHPSFCGSHDLFEVMKAFHDIGYEGYIRPDHGRLIWGEKARPGYGLYDRALGATYILGLWEAIDKMKKRYC
MGSDKIHHHHHHMKNLFLYCRAGYEKDCAAEIQQRAAELGIGGFVKANRDDAYVVFQGFSPDDGDRLAKELPLDSLIFARQMFACGDLLDDFSPEDRVTPIAESLTEVERAGELRVETPDTNEAKELSAFCRKFTVPLRQALKKRGVLLDKESSRRPIVHVCFVAPNKAFTGYSLSNNSSPHFMGIPRLKFPADAPSRSTLKLDEAFIHFIPREEHETRLRSGLNAVDLGACPGGWTYQLVRRGMMVHAIDNGPMNHDLMETGQVTHHRADGFKFEPARRNIYWLVCDMVEKPARVAELMEYWAIQGWFKEAIFNLKLPMKSRYKEVSQILANMHAILKENGIHEFHLACKHLYHDRDEVTVHLWLRPSSPWI
MGSDKIHHHHHHMKNNNPPALGQKENAKHGEVFFPVQKYITRLAADYPVITTHWHDEAELTLITKGSCTYQIDLLEYEAKEGDIIFIPPLLLHSISIRDCDEFYSETYVFHINFLGGNNTDICSSRYLTPLINHEFAMPYLIAPKHPAYSSLCKCFMRITNLYSRQEFAYELALKAFLLQAIFLLLQYSEKNADFGVNTSSDKLKNVLDYIDVHYAESIQVAELAGLCYFSEYHFMRFFKKHMNMTCVQYINNVRLEKSVEQFERGNTSILDVSLSVGFHNLSYFHRAFKKRYHMTPLSFIKSLE
MGSDKIHHHHHHMKNSAPNKDGSIEANLTDLQVQTELYQWLSLVSHQRDKQAFTELFQFFAPKIKRFGMQRLGSNDKANELVQETMSNVWRKAHLYDGEKGAATTWVYTVMRNACFDMLRRIKTRNEQLLGDDIWPVEQALAENNPESETFSDHLMEQHMREHINKLPSSQQTVVKGVYFQSLSQEQLAQQLDVPLGTIKSRLRLALARLKLQMRDEYHD
MGSDKIHHHHHHMKNYALLNGAYDNKTMYDFKPVRADNTYLYDSQNRKYLDLRSGLWNTSLGYIDSLYQRVSKRFDQVLNKKLPYLDIHSFQHDIYDEVAQKVLELTGHAFKRVLYTNSGSENTELALKIADYTNKKGENNRILAFKDSYHGTFFGGVSVSGIDQEINSSFYPKYGEVTFIDYPKSAEQEKNVLDYIANVASFYDVMMIEPILASAGIYFASTDFFNALLKLLRKNQVLIVFDEVATGFFKTGKPFYFQQLSEKPDILCLSKAINNGITSFGCVCVNEEVDAKLQKNPKTMEHFSTQNGNLLGLESANIVLDYYLKSRDVIKGKVKDISDSISNVLDSQNVFYRNQGIMTAIRTESNQSLQLMKSLEKLGILTYLYVNEEEEGLSIMPPININLNVLEKALKLISKKIESQNSF
MGSDKIHHHHHHMKNYKIVAIGDNVCDKYLSRGKMYPGGQCINTCVYGKMNGAETAYIGKYGNDEVAECVQNTLKEIGIDDSHCRHYEGENGFALVTLKNADRVFLGSNKGGIAKEHSYNFDENDFEYIKKFDLIYTNLNSYIEDNLKELHATGVPIAYDFSMRWTDEYLLKVCPYIDVAILSCAHLTAEEREKEMKKVQNYGVKIVLGTIGEDGSYVLYNGDFLYTSAIMAANIIDTMGAGDSYFSTFLCSLLQTSETGKLVEGTKESMKIRLESAMKSGAIFAANVCGMEGAFGYGVPIQGKTEI
MGSDKIHHHHHHMKPWQGISEFAAVAEQQSFTAAARQLRLSVAQVSRNIAALEHRLQMQLLYRSTRSVSLTEEGKLYLPHCQHLVASLRDADQAIQQRTQQPQGLIRITAPVYYGERFIAPLLNDFLHIYPECRLDFQLTNEQVDLIEGSYDVAIRLGQLGNPRLRARKLGSRRHFVVGSPAYFEEFGRPQDINALDAHRCFTGTVRQWRFQVEGKLETVRPESYLHCNNGLALRDAAMKGLGLAMLPDYYVTDSLANGQLEEVLADYRQPDDGIWALYPENRQVIPKVRVLLDYLSGNLSGNLSGKFNTGEIEN
MGSDKIHHHHHHMKQLLAYCLSIILCVSFTGCMENYLDLYPEDKITSASFPENESDIKLLLNGVYAQLREKEVYNQGLFGFGITDGATPNAFNWGTDEVFNKLGAGRLSSSDGGVVTYRWKRCYEIISRANYLLACMDLVDLSEEAKAKYSGETHFLRGLAYSVLAETYGGVPIILTDISTEEARSLKRASLEETWQQALDDYEVAITNLGVDAPEPGRATKGAALGMKMRAYLYQGKYKEVLSCVEQIDALKKYGLFHSYEGLFDPANENNKEVLFDIQYIEGENSQGSYIDQYCGTGTGSWTRGSRYVPTDDLVAAYETIDGSPVDPENPYENRDPRLGFTAVLPGSYFLGYRFPNYLYPGGAFNHAGNRLKHLSTRKYRIQDESKLPPSGQSYINDIILRYADVLLSKAEAIIETNGNVADAIAILNRIRTERDDVKISLLPTSMSREEAREKVRHERRIELALEGRYWSDVKRWKIGKELYPMIIKDHEGSVIETKFPNGYLEYYDLLPIPDSERSLNPNLDQNPGW
MGSDKIHHHHHHMKRENLHQPFEISFSEFDESMLKEHDHTFFELVYILSGTGIQWINNNKFSYHGGHLFMITPGDSHSFEIHSTTKFIDIKFNDIYIHSAVFGTENIKRLEFILQHANHQPGCILRNRTDKLLVKPMIEAIIREYVNRNLYSKEIITQLINTIIIVVARNIAMFLPEQVNECSEEKSLGILQYIQTYIYQSEKIKTKAISQHFGISENYLGRYFKKHTNETMQQYILNYKLKLVENRLLHSEMRISEIVAELGFTDESHLNKLFKKYRGCSPTNFRKNNAV
MGSDKIHHHHHHMKRFNIIITLSATLGLFSCELDKMPMDQVSDAVFWQKPADFELAANDFYFGLQEVSQYIDMNSDIAFGSGTNDVSDGSYLAPVNSDDWDNPWKFVQSTSYLLKKAEESGLSDEEIGRWKAEAHFFRAYNYWKLVKTYGGVPKIDIPLNTSSEELYTPRSSQQEIIDFIIEDLDKAIPLLPKQSGLTAEELGRTTQGAALALKARAALFEGTWQKYHGMADAGKYLDLAIQAAQAIVDSKEYELYREKGELSYKYLHILEGDDSKEVLLARRYYKLRATHNWTRELLLGAMVPTKNLADVYLCTDGLPIDKSKLFKGFQTQTSEFENRDSRMAQTFVVPGSEIFSEGGGWATVEPGFIGNNSTRTGYMIRKFMDETLDAVQFIGEYDFKEFRYGEVLLILAEALYEKNGQITDEQLDLTINDLRNRANMPRLTNAFVATNGLNMQEEIRRERTVELAFEGYRRDDLRRWGTAETVLPLAIRGVKFVGTEYQQKFPELVIGQDIQVDSEGFIIAQPASARKFQTPKHWLSPIPLQQVQLSKGTLEQNPGW
MGSDKIHHHHHHMKRIVCPKDYYNEQGLLLSAKGTKITLSQFLRLQRKYDFLSETEANERTLASYEKIKQKICRKDERYKRADDQLLDQASALLVNIVFESKRKPWYMYLTALGNHINWLYTHSIDVALLSLMMAIESGVSQRSLWDLGVGGILHDVGKLLIPKKIIQKRTELSDIEKDILRQHCELGVECTTDCAFPILSQDIIAQHHERLDGSGYPNQLQEGQINEYVKIVMIADAFDTITAGRPYRKTVEVEEALAYLEDQEGAFSRMYLETLKNILVRP
MGSDKIHHHHHHMKRMKGIVYGGLLSVVFVMSGCSGSQKEGRDSKEIPVEIVKVAKTVPADTRNYVGTVEEVVSSSISFQVMGNVERVLVGEGQKVREGQLLAVLDKATLENAYNASAASLRQAEDAYARMRTLHENKSLPDMKWVEVESKLEQARSMERISRKNLEDRNLYAPFGGVIGKRMVEAGENVQPGQPVFSLLRIETVNVKIAVPENEVATLGDQAAMIKVAALGGQCFEGKVTEKGIVANPISHTYEAKIRLENPSGALLPGMVCDVRLSGEESVPAITLPNNAVLIANDGGRFVWKVVDGKAKATPVRTGDLTEQGLFILEGLNEGDIVVIGGYQKISEGMRVRAL
MGSDKIHHHHHHMKRNESKYKQVVNHVIDGINNGSYKKGDWILSINEFRKNYNLSRDTVFAGLSELKSKGIIDSTPGVGYYIATTRIAQKLNIFLLFNEFNEFKEDLYNSFISSIRKTANVDLYFHNYNRKVFETLINEANYKYTTYILMPGKFTNIAPLLESLSGRVFLLDHFHPELAGKYSSVAQNFEKDTYEALVYGLPHLKKYDHIIMVQKEEKEPIERYNGLCAFCEEYHFTHEYTDSVRNREIRQGETFMVVNDRDLVDLLKQAQLQNFAPGKDFGIISYNDTPLKEILAGGITTLSTDFKQMGQTMASLITQKEIKTIENPWKLDIRNSL
MGSDKIHHHHHHMKRVKEQIKYLALLAICLLSGCSDFLDSYNPSAVTDDFYNTKEGQQKLLTDINARYRNVFNTGELQYYGTDIYMAISEEPAERMFNGYDKTFNSTAPIVGDYWKVLYKIVQESNILLNRCTPDIAGSDYTSLTAQARFFRAMAYYYLVETFGPVPLLTEENTSVIQQAERTGEQAIYTFIITELNDIKDKLDMTTISAGKVTNAAVIHFLGKMYLTRAYKSFAETDDFSNAATTFDLLVENPASGYALQENYAALFDENNQANSEVIWAIQYGLDKNYRGDGNPQQAQFGFNIVALEPDLFIKNQNDYSSVSRKYWVNPKAHELYTDPEADTRYDATFKREYYINNPDNADYGKLGIYFPRWNDKSGMSNNAKRFYPFKQDDEYVWYPQSTALPVLETASDRMPMVRKFSDTKIQWGEGGSREDVIFRLGDTYLLCAEAYLGAGNKKLALERINSIRKRAAKDATAYEAMKLTDLDINVIMDERARELMGEHDRWFDLKRTQTLLTRVPAYNPFVVKYDNLNKNHLVRPIPQDERNKVDGLSQNEGY
MGSDKIHHHHHHMKSIEELYKRALELKNKGMSDKEISTELHLSVNTVTWLLSKEFLKEGAVQDVKIGWRSVGVFGSRIISIAEIMSDIIREEMNKNSFEVDSILGIAINGIPYATLVSYLMDKELIVYRPHPARKEGVFSSNFASVEGKRVVIIDDVASTGETMRRTITDVTKEGGKPVLCVLLASKMSVNDLNGVPVRSLIRTQVIGGS
MGSDKIHHHHHHMKSNTTMSKTERLFHLLQILRRYRYPLSGQFLANELGVSTRTIYRDIAALQAQGADIEGEPGLGYVLKPGFMLPPLMFNEEEIEALVLGSRWVAKKTDTHLQQAAHNALAKIASVLPADLRQQLELSSLLIGPGEVISGEDESLALVRKAIRKELKLFIQYHDLKGNVSTRTIWPIGLGYFDQVRVLIAWCELKKDFRHFRADRIVDVENLGVCYAKRRSVLLHDWRKQNNIPG
MGSDKIHHHHHHMKSVTVADLKADPIVQGYIEVGNRNLAAIGFTEHGLRHVGLVSNIAYNILEKLGYSERECELAAVAAYLHDIGNVINRSGHAQTGALLSAHILERHAMAPEEIAIVIGAIGNHDESDGNPVSNISAALILADKSDVHRSRVRNQDPATFDIHDRVNYAVEHSFLRVYPKDRVALEITINTEICPVMDYFEIFLARMLLCRRAASFLDTVFELKINEVKLL
MGSDKIHHHHHHMKTSVKFETIFPLTTAPLIQCITNEITCESMANALLYIDAKPIMADDPREFPQMFQQTSALVLNLGHLSQEREQSLLAASDYARQVNKLTVVDLVGYGASDIRNEVGEKLVHNQPTVVKGNLSEMRTFCQLVSHGRGVDGSPLDQSEEAIEELIQALRQQTQKFPQTVFLATGIQDVLVSQEQVIVLQNGVPELDCFTGTGDLVGALVAALLGEGNAPMTAAVAAVSYFNLCGEKAKTKSQGLADFRQNTLNQLSLLMKEKDWFEAVKGRVL
